Assays:
Test in all cases: EMSA
ETV4 FL K226ac = ETV4 FL K226ac (Homo sapiens, UniProt P43268 1-484)
ETV4 FL K260ac = ETV4 FL K260ac (Homo sapiens, UniProt P43268 1-484)
ETV4 337-436 E404K = target: T1, ETV4 337-436 E404K (Homo sapiens, UniProt P43268 337-436, E404K)
T1 sequence: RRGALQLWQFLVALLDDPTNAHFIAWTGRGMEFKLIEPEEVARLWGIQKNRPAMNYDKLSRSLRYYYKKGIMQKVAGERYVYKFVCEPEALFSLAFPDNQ

ETV4 FL E404K = ETV4 FL E404K (Homo sapiens, UniProt P43268 1-484, E404K)
ETV4 337-436 E425K = ETV4 337-436 E425K (Homo sapiens, UniProt P43268 337-436, E425K)
ETV4 FL F428A/F432A = ETV4 FL F428A/F432A (Homo sapiens, UniProt P43268 1-484, F428A;F432A)
ETV4 FL E423K = ETV4 FL E423K (Homo sapiens, UniProt P43268 1-484, E423K)
ETV4 337-436 F428A/F432A = ETV4 337-436 F428A/F432A (Homo sapiens, UniProt P43268 337-436, F428A;F432A)
ETV4 337-436 E423K = ETV4 337-436 E423K (Homo sapiens, UniProt P43268 337-436, E423K)
ETV4 FL E425K = ETV4 FL E425K (Homo sapiens, UniProt P43268 1-484, E425K)
ETV4 FL L430A = ETV4 FL L430A (Homo sapiens, UniProt P43268 1-484, L430A)
ETV4 L430M = ETV4 L430M (Homo sapiens, UniProt P43268 1-484, L430M)
ETV4 337-484 = ETV4 337-484 (Homo sapiens, UniProt P43268 337-484)
ETV4 FL I407A/L430A = ETV4 FL I407A/L430A (Homo sapiens, UniProt P43268 1-484, I407A;L430A)
Chain of ETV4 FL I407A/L430A (P43268 whole entry I407A/L430A): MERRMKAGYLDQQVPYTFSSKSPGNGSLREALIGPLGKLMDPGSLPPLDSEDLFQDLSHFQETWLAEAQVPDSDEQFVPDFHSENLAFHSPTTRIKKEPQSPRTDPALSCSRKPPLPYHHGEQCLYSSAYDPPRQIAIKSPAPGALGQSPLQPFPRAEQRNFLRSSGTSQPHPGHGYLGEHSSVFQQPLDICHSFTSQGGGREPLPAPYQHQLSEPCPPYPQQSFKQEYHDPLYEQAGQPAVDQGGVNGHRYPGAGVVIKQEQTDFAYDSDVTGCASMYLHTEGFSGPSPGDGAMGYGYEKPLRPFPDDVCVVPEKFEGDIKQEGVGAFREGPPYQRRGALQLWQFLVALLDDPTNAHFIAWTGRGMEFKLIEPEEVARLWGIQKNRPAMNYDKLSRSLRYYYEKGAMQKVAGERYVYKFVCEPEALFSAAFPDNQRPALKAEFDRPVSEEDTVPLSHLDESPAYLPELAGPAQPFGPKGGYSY

Chain of ETV4 FL F428A/F432A (P43268 whole entry F428A/F432A): as the sequence (P43268 whole entry I407A/L430A) above, with A407I, F428A, A430L, F432A counted along it
Chain of ETV4 FL L430A (P43268 whole entry L430A): as the sequence (P43268 whole entry I407A/L430A) above, with A407I counted along it
Chain of ETV4 L430M (P43268 whole entry L430M): as the sequence (P43268 whole entry I407A/L430A) above, with A407I, A430M counted along it
Chain of ETV4 FL E423K (P43268 whole entry E423K): as the sequence (P43268 whole entry I407A/L430A) above, with A407I, E423K, A430L counted along it
Chain of ETV4 FL E404K (P43268 whole entry E404K): as the sequence (P43268 whole entry I407A/L430A) above, with E404K, A407I, A430L counted along it
Chain of ETV4 FL K260ac (P43268 whole entry): as the sequence (P43268 whole entry I407A/L430A) above, with A407I, A430L counted along it
Chain of ETV4 FL K226ac (P43268 whole entry): as the sequence (P43268 whole entry I407A/L430A) above, with A407I, A430L counted along it
Chain of ETV4 337-484 (P43268 337-484): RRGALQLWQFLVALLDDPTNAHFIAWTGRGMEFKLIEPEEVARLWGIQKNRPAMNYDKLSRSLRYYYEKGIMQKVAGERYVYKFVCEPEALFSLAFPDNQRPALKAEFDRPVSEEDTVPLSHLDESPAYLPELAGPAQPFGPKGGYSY
Chain of ETV4 FL E425K (P43268 whole entry E425K): as the sequence (P43268 whole entry I407A/L430A) above, with A407I, E425K, A430L counted along it

B1: 27-mer consensus ETS duplex (dsDNA)
DNA 1: TCGACGGCCAAGCCGGAAGTGAGTGCC
DNA 2: TCGAGGCACTCACTTCCGGCTTGGCCG
**Q.** For B1, which Kd (ETV4 FL K226ac) is on record?
**A.** Its Kd is 0.3 ± 0.06 nM.

**Q.** What about the Kd (ETV4 FL K260ac) of the same binder?
**A.** Its Kd is 0.51 ± 0.03 nM.

**Q.** Does B1 bind (ETV4 337-436 E404K)?
**A.** Result: binds

**Q.** Does B1 bind (ETV4 FL E404K)?
**A.** Result: binds

**Q.** Does B1 bind (ETV4 337-436 E425K)?
**A.** Result: binds

**Q.** Does B1 bind (ETV4 FL F428A/F432A)?
**A.** Result: binds

**Q.** Does B1 bind (ETV4 FL E423K)?
**A.** Result: binds

**Q.** Does B1 bind (ETV4 337-436 F428A/F432A)?
**A.** Result: binds

**Q.** Does B1 bind (ETV4 337-436 E423K)?
**A.** Result: binds

**Q.** Does B1 bind (ETV4 FL E425K)?
**A.** Result: binds

**Q.** Does B1 bind (ETV4 FL L430A)?
**A.** Result: binds

**Q.** Does B1 bind (ETV4 L430M)?
**A.** Result: binds

**Q.** And the Kd (ETV4 337-484)?
**A.** The Kd was 0.11 ± 0.02 nM.

**Q.** Does B1 bind (ETV4 FL I407A/L430A)?
**A.** Result: binds
